This is an account of results in article PMC8191777.

By Kd is commonly meant the free concentration of one partner at which half of the binding sites on the other are occupied at equilibrium, for simple one-to-one binding.

Substitutions are numbered along the chain they refer to.

For data set [1], the target named is T1, TbTRF-lMyb280-382 R298E R298E (Trypanosoma brucei) (UniProt Q4VHG6).
T1 sequence: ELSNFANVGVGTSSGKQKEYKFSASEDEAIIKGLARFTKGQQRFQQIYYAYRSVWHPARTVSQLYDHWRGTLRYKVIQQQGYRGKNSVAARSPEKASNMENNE
As to the kind of experiment: EMSA. For orientation: In EMSA bound probe runs differently from free probe, usually more slowly.

For data set [2], the target named is T2, TbTRF-lMyb280-382 (Trypanosoma brucei) (UniProt Q4VHG6).
T2 sequence: T1 sequence with E19R
Put plainly: EMSA.

With “CCCUAACCCUAACCCUAACCCUAACCCUAACCCUAACCCUAACCCUAACCCUAACCCUAACCCUAACCCUAA [ss(CCCUAA)12]”, the values for the Kd in data set [1] and in data set [2] were 36 nM and 17200 nM, respectively.

Regarding “UUAGGGUUAGGGUUAGGGUUAGGGUUAGGGUUAGGGUUAGGGUUAGGGUUAGGGUUAGGGUUAGGGUUAGGG [ss(UUAGGG)12]”, the Kd in data set [1] was 5 nM; in data set [2], 268 nM.
